Measured values from the supplement of paper PMC6757056.
± gives the standard deviation of the averaged measurements.

B1: library; a variant is named by its letters at N, in order (parent)
chain: GCUGUCACCGGUGCUUGGUACGUUAUAUUCAGCCGGUCUGAUGAGUCUNNNNNNAGACGAAACAGC

How the values were obtained:
(6R,S)-folinic acid [1] = variants of: B1; test: normalized RNA/DNA level without ligand (relative to sTRSVctl = 100) (log10 (% of sTRSVctl)); HEK293T overexpressing SLC46A1; higher = less ribozyme self-cleavage, higher mRNA level; conditions: without (6R,S)-folinic acid; ligand present: no
In short: (§1)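 RNA level was computed as RNA reads over DNA reads divided by a spiked-in non-cleaving sequence or by the top sequences, then scaled and log-transformed. Scaling was ×100 with log10, the top group was 25 sequences, and the threshold was ≥100 DNA reads. The reads came from HEK293T cells transfected at 4 µg per 6-well well with ribozyme switch library plasmids (mCherry, or eGFP in some ligand experiments). Total RNA was extracted with EDTA 72 h after transfection, with any ligand added 1 h before it.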

(6R,S)-folinic acid [2] = variants of: B1; test: normalized RNA/DNA level with ligand (relative to sTRSVctl = 100) (log10 (% of sTRSVctl)); HEK293T overexpressing SLC46A1; ligand concentration (+) RNA-Seq: 6 mM; higher = less ribozyme self-cleavage, higher mRNA level; conditions: with (6R,S)-folinic acid; ligand present: yes
In short: as §1

## AUAUCG
(6R,S)-folinic acid [1]
  normalized RNA/DNA level without ligand (log10): 1.962 ± 0.0099
(6R,S)-folinic acid [2]
  normalized RNA/DNA level with ligand (log10): 2.03 ± 0.035

## CUAUCG
(6R,S)-folinic acid [1]
  normalized RNA/DNA level without ligand (log10): 2.037 ± 0.015
(6R,S)-folinic acid [2]
  normalized RNA/DNA level with ligand (log10): 2.02 ± 0.043

## GUAUCG
(6R,S)-folinic acid [1]
  normalized RNA/DNA level without ligand (log10): 2.028 ± 0.017
(6R,S)-folinic acid [2]
  normalized RNA/DNA level with ligand (log10): 2.05 ± 0.041

## UUAUCG
(6R,S)-folinic acid [1]
  normalized RNA/DNA level without ligand (log10): 1.885 ± 0.0047
(6R,S)-folinic acid [2]
  normalized RNA/DNA level with ligand (log10): 1.97 ± 0.041

## AUAUCU
(6R,S)-folinic acid [1]
  normalized RNA/DNA level without ligand (log10): 2.0373 ± 0.00034
(6R,S)-folinic acid [2]
  normalized RNA/DNA level with ligand (log10): 2.05 ± 0.04

## CUAUCU
(6R,S)-folinic acid [1]
  normalized RNA/DNA level without ligand (log10): 2.042 ± 0.0051
(6R,S)-folinic acid [2]
  normalized RNA/DNA level with ligand (log10): 2.06 ± 0.022

## GUAUCU
(6R,S)-folinic acid [1]
  normalized RNA/DNA level without ligand (log10): 2.034 ± 0.0026
(6R,S)-folinic acid [2]
  normalized RNA/DNA level with ligand (log10): 2.038 ± 0.011

## CUAUGA
(6R,S)-folinic acid [1]
  normalized RNA/DNA level without ligand (log10): 2.02 ± 0.013
(6R,S)-folinic acid [2]
  normalized RNA/DNA level with ligand (log10): 2.02 ± 0.027

## GUAUGA
(6R,S)-folinic acid [1]
  normalized RNA/DNA level without ligand (log10): 1.987 ± 0.0024
(6R,S)-folinic acid [2]
  normalized RNA/DNA level with ligand (log10): 2.028 ± 0.017

## AUAUGC
(6R,S)-folinic acid [1]
  normalized RNA/DNA level without ligand (log10): 1.9727 ± 0.0008
(6R,S)-folinic acid [2]
  normalized RNA/DNA level with ligand (log10): 1.99 ± 0.046

## CUAUGC
(6R,S)-folinic acid [1]
  normalized RNA/DNA level without ligand (log10): 2.036 ± 0.0043
(6R,S)-folinic acid [2]
  normalized RNA/DNA level with ligand (log10): 2.036 ± 0.0099

## UUAUGC
(6R,S)-folinic acid [1]
  normalized RNA/DNA level without ligand (log10): 1.989 ± 0.0091
(6R,S)-folinic acid [2]
  normalized RNA/DNA level with ligand (log10): 2.02 ± 0.039

## CUAUGG
(6R,S)-folinic acid [1]
  normalized RNA/DNA level without ligand (log10): 1.97 ± 0.03
(6R,S)-folinic acid [2]
  normalized RNA/DNA level with ligand (log10): 2.039 ± 0.014

## GUAUGG
(6R,S)-folinic acid [1]
  normalized RNA/DNA level without ligand (log10): 1.921 ± 0.015
(6R,S)-folinic acid [2]
  normalized RNA/DNA level with ligand (log10): 2.02 ± 0.035

## UUAUGG
(6R,S)-folinic acid [1]
  normalized RNA/DNA level without ligand (log10): 1.798 ± 0.008
(6R,S)-folinic acid [2]
  normalized RNA/DNA level with ligand (log10): 1.97 ± 0.0093

## GUAUGU
(6R,S)-folinic acid [1]
  normalized RNA/DNA level without ligand (log10): 1.937 ± 0.015
(6R,S)-folinic acid [2]
  normalized RNA/DNA level with ligand (log10): 1.995 ± 0.013

## AUAUUA
(6R,S)-folinic acid [1]
  normalized RNA/DNA level without ligand (log10): 1.963 ± 0.012
(6R,S)-folinic acid [2]
  normalized RNA/DNA level with ligand (log10): 1.996 ± 0.019

## CUAUUA
(6R,S)-folinic acid [1]
  normalized RNA/DNA level without ligand (log10): 2.017 ± 0.013
(6R,S)-folinic acid [2]
  normalized RNA/DNA level with ligand (log10): 2.009 ± 0.0054

## GUAUUA
(6R,S)-folinic acid [1]
  normalized RNA/DNA level without ligand (log10): 2.005 ± 0.01
(6R,S)-folinic acid [2]
  normalized RNA/DNA level with ligand (log10): 2 ± 0.072

## UUAUUA
(6R,S)-folinic acid [1]
  normalized RNA/DNA level without ligand (log10): 1.975 ± 0.0052
(6R,S)-folinic acid [2]
  normalized RNA/DNA level with ligand (log10): 1.99 ± 0.02

## CUAUUC
(6R,S)-folinic acid [1]
  normalized RNA/DNA level without ligand (log10): 2.06 ± 0.024
(6R,S)-folinic acid [2]
  normalized RNA/DNA level with ligand (log10): 2.008 ± 0.0052

## GUAUUC
(6R,S)-folinic acid [1]
  normalized RNA/DNA level without ligand (log10): 2.03 ± 0.025
(6R,S)-folinic acid [2]
  normalized RNA/DNA level with ligand (log10): 2.021 ± 0.019

## UUAUUC
(6R,S)-folinic acid [1]
  normalized RNA/DNA level without ligand (log10): 2.012 ± 0.0098
(6R,S)-folinic acid [2]
  normalized RNA/DNA level with ligand (log10): 2.02 ± 0.079

## GUAUUG
(6R,S)-folinic acid [1]
  normalized RNA/DNA level without ligand (log10): 1.9409 ± 0.00012
(6R,S)-folinic acid [2]
  normalized RNA/DNA level with ligand (log10): 2.003 ± 0.0063

## AUAUUU
(6R,S)-folinic acid [1]
  normalized RNA/DNA level without ligand (log10): 2.008 ± 0.0083
(6R,S)-folinic acid [2]
  normalized RNA/DNA level with ligand (log10): 2.02 ± 0.027

## AUCAAA
(6R,S)-folinic acid [1]
  normalized RNA/DNA level without ligand (log10): 2.002 ± 0.0041
(6R,S)-folinic acid [2]
  normalized RNA/DNA level with ligand (log10): 2 ± 0.04

## CUCAAA
(6R,S)-folinic acid [1]
  normalized RNA/DNA level without ligand (log10): 2 ± 0.016
(6R,S)-folinic acid [2]
  normalized RNA/DNA level with ligand (log10): 1.97 ± 0.032

## GUCAAA
(6R,S)-folinic acid [1]
  normalized RNA/DNA level without ligand (log10): 1.994 ± 0.009
(6R,S)-folinic acid [2]
  normalized RNA/DNA level with ligand (log10): 1.99 ± 0.037

## AUCAAC
(6R,S)-folinic acid [1]
  normalized RNA/DNA level without ligand (log10): 2.0326 ± 0.00048
(6R,S)-folinic acid [2]
  normalized RNA/DNA level with ligand (log10): 2.01 ± 0.033

## CUCAAC
(6R,S)-folinic acid [1]
  normalized RNA/DNA level without ligand (log10): 2.07 ± 0.029
(6R,S)-folinic acid [2]
  normalized RNA/DNA level with ligand (log10): 2.045 ± 0.0073

## GUCAAC
(6R,S)-folinic acid [1]
  normalized RNA/DNA level without ligand (log10): 2.0058 ± 0.0019
(6R,S)-folinic acid [2]
  normalized RNA/DNA level with ligand (log10): 2.03 ± 0.03

## UUCAAC
(6R,S)-folinic acid [1]
  normalized RNA/DNA level without ligand (log10): 2.026 ± 0.015
(6R,S)-folinic acid [2]
  normalized RNA/DNA level with ligand (log10): 2.02 ± 0.046

## AUCAAG
(6R,S)-folinic acid [1]
  normalized RNA/DNA level without ligand (log10): 1.93 ± 0.021
(6R,S)-folinic acid [2]
  normalized RNA/DNA level with ligand (log10): 2 ± 0.026

## CUCAAG
(6R,S)-folinic acid [1]
  normalized RNA/DNA level without ligand (log10): 1.96 ± 0.024
(6R,S)-folinic acid [2]
  normalized RNA/DNA level with ligand (log10): 2.01 ± 0.023

## AUCAAU
(6R,S)-folinic acid [1]
  normalized RNA/DNA level without ligand (log10): 1.989 ± 0.0025
(6R,S)-folinic acid [2]
  normalized RNA/DNA level with ligand (log10): 2 ± 0.053

## GUCAAU
(6R,S)-folinic acid [1]
  normalized RNA/DNA level without ligand (log10): 1.975 ± 0.018
(6R,S)-folinic acid [2]
  normalized RNA/DNA level with ligand (log10): 2.02 ± 0.045

## CUCACA
(6R,S)-folinic acid [1]
  normalized RNA/DNA level without ligand (log10): 2.036 ± 0.0022
(6R,S)-folinic acid [2]
  normalized RNA/DNA level with ligand (log10): 2 ± 0.049

## GUCACA
(6R,S)-folinic acid [1]
  normalized RNA/DNA level without ligand (log10): 1.991 ± 0.0044
(6R,S)-folinic acid [2]
  normalized RNA/DNA level with ligand (log10): 1.996 ± 0.0028

## UUCACA
(6R,S)-folinic acid [1]
  normalized RNA/DNA level without ligand (log10): 1.966 ± 0.017
(6R,S)-folinic acid [2]
  normalized RNA/DNA level with ligand (log10): 1.971 ± 0.015

## AUCACC
(6R,S)-folinic acid [1]
  normalized RNA/DNA level without ligand (log10): 2.057 ± 0.0026
(6R,S)-folinic acid [2]
  normalized RNA/DNA level with ligand (log10): 2.04 ± 0.053

## CUCACC
(6R,S)-folinic acid [1]
  normalized RNA/DNA level without ligand (log10): 2.06 ± 0.029
(6R,S)-folinic acid [2]
  normalized RNA/DNA level with ligand (log10): 1.96 ± 0.048

## UUCACC
(6R,S)-folinic acid [1]
  normalized RNA/DNA level without ligand (log10): 2.06 ± 0.036
(6R,S)-folinic acid [2]
  normalized RNA/DNA level with ligand (log10): 2.02 ± 0.068

## AUCACG
(6R,S)-folinic acid [1]
  normalized RNA/DNA level without ligand (log10): 1.969 ± 0.014
(6R,S)-folinic acid [2]
  normalized RNA/DNA level with ligand (log10): 2.01 ± 0.043

## CUCACG
(6R,S)-folinic acid [1]
  normalized RNA/DNA level without ligand (log10): 2.04 ± 0.027
(6R,S)-folinic acid [2]
  normalized RNA/DNA level with ligand (log10): 2.028 ± 0.02

## UUCACG
(6R,S)-folinic acid [1]
  normalized RNA/DNA level without ligand (log10): 1.954 ± 0.013
(6R,S)-folinic acid [2]
  normalized RNA/DNA level with ligand (log10): 2.01 ± 0.028

## AUCACU
(6R,S)-folinic acid [1]
  normalized RNA/DNA level without ligand (log10): 2.029 ± 0.008
(6R,S)-folinic acid [2]
  normalized RNA/DNA level with ligand (log10): 2.01 ± 0.03

## CUCACU
(6R,S)-folinic acid [1]
  normalized RNA/DNA level without ligand (log10): 2.041 ± 0.0055
(6R,S)-folinic acid [2]
  normalized RNA/DNA level with ligand (log10): 1.99 ± 0.021

## GUCACU
(6R,S)-folinic acid [1]
  normalized RNA/DNA level without ligand (log10): 2.02 ± 0.025
(6R,S)-folinic acid [2]
  normalized RNA/DNA level with ligand (log10): 2.03 ± 0.042

## AUCAGA
(6R,S)-folinic acid [1]
  normalized RNA/DNA level without ligand (log10): 2.047 ± 0.0058
(6R,S)-folinic acid [2]
  normalized RNA/DNA level with ligand (log10): 2.04 ± 0.031

## CUCAGA
(6R,S)-folinic acid [1]
  normalized RNA/DNA level without ligand (log10): 2.048 ± 0.019
(6R,S)-folinic acid [2]
  normalized RNA/DNA level with ligand (log10): 2.03 ± 0.07

## GUCAGA
(6R,S)-folinic acid [1]
  normalized RNA/DNA level without ligand (log10): 2.0258 ± 0.00039
(6R,S)-folinic acid [2]
  normalized RNA/DNA level with ligand (log10): 2.027 ± 0.01

## UUCAGA
(6R,S)-folinic acid [1]
  normalized RNA/DNA level without ligand (log10): 1.975 ± 0.011
(6R,S)-folinic acid [2]
  normalized RNA/DNA level with ligand (log10): 2 ± 0.021

## AUCAGC
(6R,S)-folinic acid [1]
  normalized RNA/DNA level without ligand (log10): 2.065 ± 0.016
(6R,S)-folinic acid [2]
  normalized RNA/DNA level with ligand (log10): 2.02 ± 0.031

## CUCAGC
(6R,S)-folinic acid [1]
  normalized RNA/DNA level without ligand (log10): 2.06 ± 0.0071
(6R,S)-folinic acid [2]
  normalized RNA/DNA level with ligand (log10): 2.032 ± 0.0023

## GUCAGC
(6R,S)-folinic acid [1]
  normalized RNA/DNA level without ligand (log10): 1.979 ± 0.018
(6R,S)-folinic acid [2]
  normalized RNA/DNA level with ligand (log10): 2.02 ± 0.033

## UUCAGC
(6R,S)-folinic acid [1]
  normalized RNA/DNA level without ligand (log10): 2.063 ± 0.016
(6R,S)-folinic acid [2]
  normalized RNA/DNA level with ligand (log10): 2.048 ± 0.014

## AUCAGG
(6R,S)-folinic acid [1]
  normalized RNA/DNA level without ligand (log10): 1.96 ± 0.023
(6R,S)-folinic acid [2]
  normalized RNA/DNA level with ligand (log10): 2.04 ± 0.041
